Results on two proteins are retold here after publication doi:10.1101/2023.04.24.538129 (bioRxiv, 2023).

The data set concerns the molecule itself. The experiment in a line: Thioflavin-T fluorescence.

B1: human dysferlin C2A domain with the pathogenic mutation W52R (C2A^W52R) (domain or fragment)
chain: MLRVFILYAENVHTPDTDISDAYCSAVFAGVKKRTKVIKNSVNPVWNEGFERDLKGIPLDQGSELHVVVKDHETMGRNRFLGEAKVPLREVLATPSLSASFNAPLLDTKKQPTGASLVLQVSYT
For the protein B1, the binding result is listed as “binds”.

B2: human dysferlin C2A domain with the pathogenic mutation V67D (C2A^V67D) (domain or fragment)
chain: MLRVFILYAENVHTPDTDISDAYCSAVFAGVKKRTKVIKNSVNPVWNEGFEWDLKGIPLDQGSELHDVVKDHETMGRNRFLGEAKVPLREVLATPSLSASFNAPLLDTKKQPTGASLVLQVSYT
Turning to B2, the binding result was “binds”.
